Reference: PMC3334931, “Characterization of the Single Stranded DNA Binding Protein SsbB Encoded in the Gonoccocal Genetic Island” (PLoS ONE, 2012)

B1: 32P-dT75 (ssDNA)
DNA: TTTTTTTTTTTTTTTTTTTTTTTTTTTTTTTTTTTTTTTTTTTTTTTTTTTTTTTTTTTTTTTTTTTTTTTTTTT
B2: native SsbB (single stranded DNA binding protein SsbB encoded in the Gonococcal Genetic Island of Neisseria gonorrhoeae) (natural protein, UniProt Q5EP75 1-143, looked up)
chain: MSVQLFVRGNLGAEFNLRPVASPKNDEASIVLNFSVASPNFKRNAEGKSEVVSTEWISCEYWNRDAAHLHKILQVGMPVFVTGEERYESYTNRDGIEVRVRKLRVQDVFIVPTERVEAIKLRPKREQSQDNNHVEDADDDIPL
notes: expressed as the native (untagged) protein; also called WT; GGI SSB; source: E. coli C43 (DE3), purified (Hi-Trap Q, DNA-cellulose, Superdex SD200)
B3: OneSTrEP-tagged SsbB (natural protein, Neisseria gonorrhoeae, UniProt Q5EP75 1-143, looked up)
chain: B2 chain
notes: source: E. coli C43 (DE3), purified (Strep-tactin Sepharose, Hi-Trap Q, Superdex SD200); not shown: OneSTrEP tag, N-terminal, kept
B4: His-tagged SsbB (natural protein, Neisseria gonorrhoeae, UniProt Q5EP75 1-143, looked up)
chain: B2 chain
notes: also called N- His- tagged SsbB; source: E. coli C43 (DE3), purified (Hi-Trap Chelating Ni, Hi-Trap Q, Superdex SD200); not shown: His tag, N-terminal, kept
B5: dT70 (ssDNA)
DNA: TTTTTTTTTTTTTTTTTTTTTTTTTTTTTTTTTTTTTTTTTTTTTTTTTTTTTTTTTTTTTTTTTTTTTT

Experiments:
SsbB (native) [1] = target: T1, SsbB (native) (Neisseria gonorrhoeae MS11, UniProt Q5EP75 1-143); experiment: EMSA; SBA buffer; (SsbB)4 concentration; one and two tetramer complexes; EMSA: SBA buffer (10 mM NaOH, 2 mM EDTA, boric acid to pH 7.5), optional 10 mM MgCl2 and/or NaCl up to 500 mM, 4 C 15 min; AFM: 20 mM Tris pH 7.5, 150 mM NaCl; settings: protein: recombinant; tags: none; chain copies: 4; label: 5' 32P
T1 sequence: B2 chain

SsbB (native) [2] = target: T1, SsbB (native); experiment: tryptophan fluorescence titration; biphasic; 1 oligo per tetramer high affinity, second much weaker; EMSA: SBA buffer (10 mM NaOH, 2 mM EDTA, boric acid to pH 7.5), optional 10 mM MgCl2 and/or NaCl up to 500 mM, 4 C 15 min; AFM: 20 mM Tris pH 7.5, 150 mM NaCl; settings: protein: recombinant; tags: none; chain copies: 4
SsbB (native) [3] = target: T1, SsbB (native); experiment: EMSA; stoichiometric at 8 nM DNA; 1 tetramer per oligo; Cy3 raises affinity at least 10-fold; EMSA: SBA buffer (10 mM NaOH, 2 mM EDTA, boric acid to pH 7.5), optional 10 mM MgCl2 and/or NaCl up to 500 mM, 4 C 15 min; AFM: 20 mM Tris pH 7.5, 150 mM NaCl; settings: protein: recombinant; tags: none; chain copies: 4; label: 5' Cy3
SsbB (native) [4] = target: T1, SsbB (native); experiment: EMSA (Coomassie); 1 uM tetramer, 5 uM oligo; minimal frame for one tetramer; EMSA: SBA buffer (10 mM NaOH, 2 mM EDTA, boric acid to pH 7.5), optional 10 mM MgCl2 and/or NaCl up to 500 mM, 4 C 15 min; AFM: 20 mM Tris pH 7.5, 150 mM NaCl; settings: protein: recombinant; tags: none; chain copies: 4
[5] = target: the molecule itself; experiment: SEC; gel filtration chromatography of the purified proteins; single peaks; data not shown
SsbB (native) [6] = target: T1, SsbB (native); experiment: EMSA (Coomassie); 1 uM tetramer, 0.25 uM oligo; minimal frame for two tetramers; EMSA: SBA buffer (10 mM NaOH, 2 mM EDTA, boric acid to pH 7.5), optional 10 mM MgCl2 and/or NaCl up to 500 mM, 4 C 15 min; AFM: 20 mM Tris pH 7.5, 150 mM NaCl; settings: protein: recombinant; tags: none; chain copies: 4

Row | Binder | binding result (SsbB (native) [2]) | stoichiometry N [5] | further results
1 | B1 | – | – | Kd (SsbB (native) [1]): ~100 nM
2 | TTTTTTTTTTTTTTTTTTTTTTTTTTTTTTTTTTTTTTTTTTTTT (ssDNA) [dT45] | binds | – | –
3 | TTTTTTTTTTTTTTTTTTTTTTTTTTTTTTTTTTT (ssDNA) [Cy3-dT35] | – | – | binding result (SsbB (native) [3]): binds
4 | TTTTTTTTTTTTTTTTTTTTTTTTTTTTTTTTTTT (ssDNA) [dT35] | binds | – | –
5 | TTTTTTTTTTTTTTT (ssDNA) [dT15] | – | – | binding result (SsbB (native) [4]): binds
6 | B2 | – | 4 | –
7 | B3 | – | 4 | –
8 | B4 | – | 4 | –
9 | B5 | – | – | binding result (SsbB (native) [6]): binds
10 | TTTTTTTTTTTTTTTTTTTTTTTTT (ssDNA) [dT25] | binds | – | –
